Experimental data reported in patent US20160280788A1, “USE OF ANTIBODIES AGAINST ICAM-1 IN THE TREATMENT OF PATIENTS WITH RELAPSED CANCER” (BioInvent International AB, priority 2010, published 2016).
“Also recorded” adds a separate entry of the source.

Legend:
OPM-2 myeloma cells = test: Subcutaneous myeloma xenograft, OPM-2 (ICAM-1 negative); assay type: in vivo, scid mice; conditions: 2 mg/kg twice weekly i.p.; ICAM-1 negative cell line
Procedure: (§1) Antibody treatment with 2 mg/kg BI-505 or control IgG1 was started at Day 1 and was continued on a twice-weekly intraperitoneal dosing regimen. Mice were sacrificed when tumor sizes reached the ethical limit.

RPMI-8226 myeloma cells [1] = test: Subcutaneous myeloma xenograft, RPMI-8226; assay type: in vivo, scid mice; conditions: 2 mg/kg twice weekly i.p.; vs control IgG1
Procedure: as §1

RPMI-8226 myeloma cells [2] = test: Disseminated RPMI-8226 model of multiple myeloma; assay type: in vivo, SCID mice; conditions: 2 mg/kg i.v. twice weekly for 8 weeks, vs control mAb and standard of care drugs
Procedure: ARH-77 cells or RPMI-8226 were injected intraveniously into the SCID mice. (FIG. 6A) ARH-77 model. Animals received intravenous injections with antibody at 2 mg/kg or bortezomib (Velcade) at 0.5 mg/kg on Days 7, 10, 13, and 16 (as indicated by arrows in the graph). (FIG. 6B) RPMI-8226-model. BI-505 or control mAb was administered i.v at 2 mg/kg, twice weekly for 8 weeks, bortezomid, at 1 mg/kg, once weekly for 8 weeks, lenalidomide p.o with 2 mg/kg for 2 cycles consisting of 5 days of treatment and 2 days of wash out, melphalan i.v at 3 mg/kg, once weekly for 8 weeks, and dexamethasone (DXH) at 6 mg/kg/inj 3 times/week for 2 consecutive weeks. There were 6-10 mice per treatment group. Statistical significance was calculated using Log-rank Graphpad Prism software and determined at ***p<0.001. (FIG. 6C) To study the ICAM-1 level on human cells, the cells from different organs were stained and gated for CD38+/mCD45−/BI-505+. Left panel indicates the percentage of BI-505 positive cells in CD38+/mCD45 population and right panel the mean fluorescent intensity of the positive cells.
The anti-myeloma effect of BI-505 was examined in a disseminated model of multiple myeloma. The early and advanced disseminated model of multiple myeloma was performed at Oncodesign, Dijon, France. […]

NCI-H929 myeloma cells = test: Subcutaneous myeloma xenograft, NCI-H929; assay type: in vivo, scid mice; conditions: 2 mg/kg twice weekly i.p.; vs control IgG1
Procedure: as §1

recombinant human ICAM-1 = recombinant human ICAM-1 (Homo sapiens, UniProt P05362); test: ELISA on recombinant human ICAM-1, ICAM-2, ICAM-3; assay type: binding; conditions: vs ICAM-2, ICAM-3
recombinant human ICAM-1, sequence (P05362 28-532): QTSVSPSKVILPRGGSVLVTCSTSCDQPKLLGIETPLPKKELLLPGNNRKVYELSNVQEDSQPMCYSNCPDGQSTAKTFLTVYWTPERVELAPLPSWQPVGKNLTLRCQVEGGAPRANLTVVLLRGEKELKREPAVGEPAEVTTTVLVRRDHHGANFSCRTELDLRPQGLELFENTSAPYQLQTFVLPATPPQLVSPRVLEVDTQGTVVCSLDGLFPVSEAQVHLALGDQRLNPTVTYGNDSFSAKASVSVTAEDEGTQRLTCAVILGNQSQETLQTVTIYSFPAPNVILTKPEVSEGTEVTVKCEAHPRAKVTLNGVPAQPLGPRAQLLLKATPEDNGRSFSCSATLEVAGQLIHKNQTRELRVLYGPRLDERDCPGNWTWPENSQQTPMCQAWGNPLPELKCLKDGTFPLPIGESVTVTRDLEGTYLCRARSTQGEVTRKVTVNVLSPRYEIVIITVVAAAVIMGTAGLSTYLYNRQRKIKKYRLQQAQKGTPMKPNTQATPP
Procedure: Antibody-specific bands were excised and subjected to tryptic digestion and analyzed by MALDI-TOF. The single band precipitated by BI-505 was identified as ICAM-1. The established identity of ICAM-1 was confirmed by blocking studies by up to 50-fold molar excess soluble recombinant ICAM-1 or VCAM. The MFI of BI-505 to PC-3 cells was determined by flow cytometry. Dashed line represents the negative control antibody and gray solid histogram represents the MFI of BI-505 with no preblocking. BI-505 was preblocked by recombinant VCAM or ICAM-1. […] Anti-ICAM-2 and α-ICAM-3 antibodies were used as positive controls to detect ICAM-2 and ICAM-3 respectively.

[3] = Mouse serum antibody levels by ELISA at end of xenograft experiment; assay type: in vivo; conditions: mouse serum at end of experimentation
Procedure: We next performed a dose-titration experiment to establish IgG B11 in vivo potency and the minimal dose achieving maximal anti-tumor activity, using the scid/ARH-77 model system. […] Mouse serum antibody trough concentrations were determined by ELISA at the end of experimentation. Trough antibody concentrations were then plotted against percent of maximal in vivo anti-tumour activity, and against percent of maximal ICAM-1 receptor occupancy and tumour cell PCD at corresponding antibody concentrations in vitro (FIGS. 3C, 3D, 3E, 3F and 3G). Strikingly, a near perfect correlation between antibody concentration and in vitro tumour cell receptor occupancy, in vitro tumor cell PCD, and in vivo anti-tumour activity was observed, consistent with ICAM-1 dependent direct cell cytotoxicity underlying in vivo anti-tumour activity.

Daudi cells = test: Subcutaneous Daudi non-Hodgkin lymphoma xenograft; assay type: in vivo, scid mice; conditions: twice weekly i.p. from day 1; compared to rituximab
[4] = test system: HUVEC and HMVEC endothelial cells; test: PCD in normal endothelial cells; assay type: cell-based; conditions: resting or activated (IFN-γ) cells
Procedure: Target cells were seeded in 96-well culture plates at a density of 2×10^6 cells/mL culture medium. Titrated concentrations of IgG1 B11 or different negative and positive control antibodies were added to the cells, in the absence or presence of anti-human Fab fragment (Jackson ImmunoResearch) for cross-linking. The cells were then incubated for 16 hours at 37° C. in a humidified atmosphere of 5% CO2. The cells were harvested and stained for Annexin V-488/Propidium Iodide (Invitrogen, Sweden) and analysed using flow cytometer (FACS Calibur, BD Bioscience).

B1: IgG B11: fully human ICAM-1 antibody isolated from the n-CoDeR library; VH/VL sequences in FIG. 15 (SEQ ID NOs 8, 10) (antibody, V domains shown)
VH: EVQLLESGGGLVQPGGSLRLSCAASGFTFSNAWMSWVRQAPGKGLEWVAFIWYDGSNKYYADSVKGRFTISRDNSKNTLYLQMNSLRAEDTAVYYCARYSGWYFDYWGQGTLVTVSS
VL: QSVLTQPPSASGTPGQRVTISCTGSSSNIGAGYDVHWYQQLPGTAPKLLIYDNNNRPSGVPDRFSGSKSGTSASLAISGLRSEDEADYYCQSYDSSLSAWLFGGGTKLTVLG
modifications: B11 VH region; B11 VL region
OPM-2 myeloma cells
  tumor growth: no effect on tumor growth; also recorded: did not affect tumor growth
RPMI-8226 myeloma cells [1]
  reduction of myeloma tumor growth: 96%
RPMI-8226 myeloma cells [2]
  survival: significantly enhanced survival
RPMI-8226 myeloma cells [2]; listed as BI-505
  survival: significantly enhances survival; also recorded: highly improved survival
NCI-H929 myeloma cells
  reduction of myeloma tumor growth: 99%
Recombinant human ICAM-1
  specificity for ICAM-1: high specificity
[3]; dose 0.02 mg/kg
  In vivo IgG Levels (serum antibody titers): 0.06 ± 0.02 µg/mL
[3]; dose 0.2 mg/kg
  In vivo IgG Levels (serum antibody titers): 1.2 ± 0.4 µg/mL
[3]; dose 2 mg/kg
  In vivo IgG Levels (serum antibody titers): 20 ± 2.9 µg/mL
Daudi cells
  survival of tumor bearing mice: prolonged survival
  tumor growth: prevented tumor growth
[4]
  PCD induction in normal endothelial cells: did not, however, induce PCD
